The supplement of paper PMC10126150
± gives the standard deviation of the averaged measurements.

test system: ATP; test: switch fluorescence ratio, 500 uM ATP over buffer (Cy3 cluster intensity, sum of 5 cycles each) (fold (ratio)); higher = stronger signal-on switching upon ATP binding; sequences stand for … in TCGTCGGCAGCGTCAGATGTGTATAAGAGACAGTTTTTTTTTTTTTTTTTTTTTTTTT…TC; details: aptamer strand: ATP DNA aptamer (quencher-CACCTGGGGGAGTATTGCGGAGGAAGG + anchor), 100 nM annealed; ATP concentration: 500 uM
Procedure, shortened: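 Cy3-labelled switching-strand clusters on a modified Illumina MiSeq flow-cell were annealed to 100 nM quencher-labelled ATP aptamer and imaged first in selection buffer, then after 15 min with 500 uM ATP at 22 °C. NaOH stripping and re-annealing separated each of five buffer/ATP cycles, and clusters outside 100-1000 RFU were excluded. The fluorescence ratio sums target-cycle Cy3 intensity over buffer-cycle Cy3 intensity per cluster and averages it per switch-domain sequence.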
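Note: ATP exposure 15 min at 22 °C before imaging.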

Going from AGTTATGTTT to AGTTCAACCT, the switch fluorescence ratio rises from 0.956 ± 0.051 to 1.65 ± 0.19.

AGTTCAGAAC and AGTTCGGGCA are within error of each other in switch fluorescence ratio: 0.9899 ± 0.0075 for the first, 0.998 ± 0.021 for the second.

AGTTCTAGGA and AGTTCTCAGT are within error of each other in switch fluorescence ratio: 0.953 ± 0.03 for the first, 0.997 ± 0.018 for the second.

AGTTCTGGTT and AGTTCTGTCG are within error of each other in switch fluorescence ratio: 0.965 ± 0.011 for the first, 1.01 ± 0.09 for the second.

First: AGTTCTTGGC
Second: AGTTGCACGT
The switch fluorescence ratio of the first is higher: 1.02 ± 0.0042 for the first, 0.954 ± 0.041 for the second.

AGTTGCGTAG and AGTTGCGTTA are within error of each other in switch fluorescence ratio: 0.989 ± 0.021 for the first, 0.963 ± 0.025 for the second.

AGTTGGCGGG and AGTTGGCTTA are within error of each other in switch fluorescence ratio: 1.018 ± 0.005 for the first, 1.01 ± 0.013 for the second.

AGTTGGGCAT and AGTTGGGGGA are within error of each other in switch fluorescence ratio: 0.995 ± 0.017 for the first, 0.984 ± 0.014 for the second.

Compared with AGTTGGTCTC, AGTTGTATT is lower in switch fluorescence ratio: 1.13 ± 0.12 for the first, 0.967 ± 0.022 for the second.

AGTTGTCTCT and AGTTGTGAGT are within error of each other in switch fluorescence ratio: 0.979 ± 0.035 for the first, 0.9726 ± 0.0077 for the second.

Going from AGTTGTTATT to AGTTGTTTGT, the switch fluorescence ratio falls from 1.027 ± 0.0088 to 0.966 ± 0.016.

AGTTGTTTTT and AGTTTAACTA are within error of each other in switch fluorescence ratio: 0.983 ± 0.025 for the first, 1 ± 0.025 for the second.

AGTTTAAGGA and AGTTTACGAA are the same in switch fluorescence ratio: 1.01 ± 0.025 for the first, 1.01 ± 0.0069 for the second.

Compared with AGTTTACGTG, AGTTTCGCGG is lower in switch fluorescence ratio: 1 ± 0.0033 for the first, 0.9632 ± 0.0037 for the second.

AGTTTCGCTA and AGTTTCGGGC are within error of each other in switch fluorescence ratio: 0.992 ± 0.024 for the first, 0.974 ± 0.033 for the second.

AGTTTGAGGA and AGTTTGATAT are within error of each other in switch fluorescence ratio: 1.01 ± 0.014 for the first, 0.999 ± 0.017 for the second.

AGTTTGCCAG and AGTTTGGGCA are within error of each other in switch fluorescence ratio: 0.96403 ± 0.00025 for the first, 0.975 ± 0.029 for the second.

AGTTTGGGGC and AGTTTGGGGG are within error of each other in switch fluorescence ratio: 0.984 ± 0.045 for the first, 0.966 ± 0.029 for the second.

AGTTTGGTGT and AGTTTGTGGC are within error of each other in switch fluorescence ratio: 0.997 ± 0.026 for the first, 0.965 ± 0.012 for the second.

AGTTTGTTGC and AGTTTTAACG are within error of each other in switch fluorescence ratio: 1 ± 0.012 for the first, 0.974 ± 0.073 for the second.

Compared with AGTTTTATCC, AGTTTTATTT is lower in switch fluorescence ratio: 1.006 ± 0.0052 for the first, 0.968 ± 0.032 for the second.

AGTTTTCCTG and AGTTTTGGGG are within error of each other in switch fluorescence ratio: 0.985 ± 0.015 for the first, 0.981 ± 0.043 for the second.

AGTTTTTAAA and AGTTTTTATG are the same in switch fluorescence ratio: 1.027 ± 0.0039 for the first, 1.026 ± 0.0028 for the second.

AGTTTTTCCA and AGTTTTTCGT are within error of each other in switch fluorescence ratio: 1.02 ± 0.031 for the first, 1.01 ± 0.019 for the second.

First: AGTTTTTGAG
Second: AGTTTTTGCT
The switch fluorescence ratio of the first is higher: 1 ± 0.013 for the first, 0.9736 ± 0.0065 for the second.

AGTTTTTGTT and AGTTTTTTCG are within error of each other in switch fluorescence ratio: 0.987 ± 0.024 for the first, 0.973 ± 0.023 for the second.

AGTTTTTTGG and AGTTTTTTTT are within error of each other in switch fluorescence ratio: 1.01 ± 0.033 for the first, 0.997 ± 0.028 for the second.

Going from ATAAAAAAAG to ATAAAAAGGA, the switch fluorescence ratio falls from 1.05 ± 0.021 to 1.0058 ± 0.00029.

First: ATAAAAGAAG
Second: ATAAACCTTG
The switch fluorescence ratio of the first is lower: 1.01 ± 0.041 for the first, 1.16 ± 0.031 for the second.

First: ATAAACGTTA
Second: ATAAAGAAGC
The switch fluorescence ratio of the first is higher: 1.1 ± 0.018 for the first, 1.02 ± 0.022 for the second.

ATAAAGCGGC and ATAAAGGTCT are within error of each other in switch fluorescence ratio: 0.994 ± 0.047 for the first, 0.984 ± 0.0053 for the second.

ATAAATGACG and ATAAATGCGT are within error of each other in switch fluorescence ratio: 1.02 ± 0.037 for the first, 1.002 ± 0.0031 for the second.

First: ATAACAAGAC
Second: ATAACAGGAT
The switch fluorescence ratio of the first is higher: 1.32 ± 0.067 for the first, 0.986 ± 0.033 for the second.

ATAACGGGGA and ATAAGAATTG are within error of each other in switch fluorescence ratio: 0.999 ± 0.015 for the first, 1.01 ± 0.06 for the second.

ATAAGACTGT and ATAAGAGGAG are within error of each other in switch fluorescence ratio: 1.03 ± 0.018 for the first, 0.995 ± 0.022 for the second.

ATAAGCGGAG and ATAAGCGTGG are within error of each other in switch fluorescence ratio: 1 ± 0.013 for the first, 0.995 ± 0.082 for the second.

ATAAGGAGGT and ATAAGGAGTT are the same in switch fluorescence ratio: 1.012 ± 0.0081 for the first, 1.01 ± 0.045 for the second.

ATAAGGCCTG and ATAAGGGGGC are within error of each other in switch fluorescence ratio: 1.03 ± 0.075 for the first, 0.989 ± 0.041 for the second.

ATAAGGGGGT and ATAAGGGTCC are within error of each other in switch fluorescence ratio: 0.973 ± 0.016 for the first, 1.04 ± 0.066 for the second.

ATAAGGTGAG and ATAAGTCTGT are within error of each other in switch fluorescence ratio: 0.998 ± 0.035 for the first, 1.008 ± 0.0073 for the second.

ATAAGTGGA and ATAAGTGGGA are within error of each other in switch fluorescence ratio: 0.997 ± 0.062 for the first, 0.986 ± 0.076 for the second.

Compared with ATAATAGGCG, ATAATCACCT is higher in switch fluorescence ratio: 0.985 ± 0.0028 for the first, 1.23 ± 0.019 for the second.

First: ATAATCCCGA
Second: ATAATCGAGT
The switch fluorescence ratio of the first is higher: 1.02 ± 0.015 for the first, 0.9837 ± 0.0076 for the second.

ATAATGAGGT and ATAATGGCTT are within error of each other in switch fluorescence ratio: 1.01 ± 0.042 for the first, 0.988 ± 0.025 for the second.

ATAATGGGCA and ATAATGGTC are within error of each other in switch fluorescence ratio: 0.983 ± 0.064 for the first, 1.003 ± 0.008 for the second.

Compared with ATAATGTATA, ATAATGTGAA is higher in switch fluorescence ratio: 0.9835 ± 0.0028 for the first, 1.03 ± 0.017 for the second.

ATAATGTTGT and ATAATTATCG are within error of each other in switch fluorescence ratio: 0.991 ± 0.031 for the first, 0.972 ± 0.046 for the second.

ATAATTGAGC and ATAATTGGG are within error of each other in switch fluorescence ratio: 1.04 ± 0.027 for the first, 0.978 ± 0.097 for the second.

ATAATTTAAT and ATAATTTGCC are within error of each other in switch fluorescence ratio: 0.9986 ± 0.0074 for the first, 1.01 ± 0.05 for the second.

Compared with ATAATTTGGG, ATACAACCTG is higher in switch fluorescence ratio: 0.99 ± 0.017 for the first, 1.106 ± 0.0065 for the second.
